This note sets out measurements from PMC9201945 (Frontiers in Molecular Neuroscience, 2022).

One series deals with GFP-PICK1 BAR domain. As to the kind of experiment: cross-linking; HEK293 cells in 2 ml PBS with 0.3 mM DSS for 20 min at room temperature, quenched with 50 mM Tris, lysed, Western blot (anti-GFP or anti-PICK1); for untagged PICK1 after 5 min with 3 μM ionomycin and a range of extracellular CaCl2. On the technique in general: In western blotting, separated proteins are transferred to a membrane and probed.

Series [1] concerns the molecule itself. The description is as above.
Series [2] concerns the molecule itself. As to the kind of experiment: cross-linking; 100 nM purified his6 protein in 150 mM NaCl, 20 mM HEPES pH 7.4, 5 mM HEDTA, CaCl2 to give [Ca2+]free of 0, 2, 5, 12, 26 μM; 10 μM DSS for 20 min at room temperature, quenched with 50 mM Tris; Western blot with anti-PICK1.

One may read the stoichiometry N as the number of molecules, sites or subunits per partner or assembly. “GFP-PICK1 BAR domain (domain or fragment)” yielded a stoichiometry N with GFP-PICK1 BAR domain of 2.

B1: GFP-Endophilin A1 (natural protein, UniProt Q99962 1-352, looked up)
chain: MSVAGLKKQFHKATQKVSEKVGGAEGTKLDDDFKEMERKVDVTSRAVMEIMTKTIEYLQPNPASRAKLSMINTMSKIRGQEKGPGYPQAEALLAEAMLKFGRELGDDCNFGPALGEVGEAMRELSEVKDSLDIEVKQNFIDPLQNLHDKDLREIQHHLKKLEGRRLDFDYKKKRQGKIPDEELRQALEKFDESKEIAESSMFNLLEMDIEQVSQLSALVQAQLEYHKQAVQILQQVTVRLEERIRQASSQPRREYQPKPRMSLEFPTGDSTQPNGGLSHTGTPKPSGVQMDQPCCRALYDFEPENEGELGFKEGDIITLTNQIDENWYEGMLHGHSGFFPINYVEILVALPH
notes: Endophilin A1, BAR domain protein; plasmid a gift from Dr. Ira Milosevic; The methods name only one 'GFP-endophilin'; source: HEK293, transfected, cross-linked in cells, in lysate
Turning to B1, the “stoichiometry N” value in series [1] came out at 2.

B2: his64A-PICK1 (natural protein, UniProt Q9EP80 1-416, looked up)
chain: MFADLDYDIEEDKLGIPTVPGKVTLQKDAQNLIGISIGGGAQYCPCLYIVQVFDNTPAALDGTVAAGDEITGVNGRSIKGKTKVEVAKMIQEVKGEVTIHYNKLQADPKQGMSLDIVLKKVKHRLVENMSSGTADALGLSRAILCNDGLVKRLEELERTAELYKGMTEHTKNLLRAFYELSQTHRAFGDVFSVIGVREPQPAASEAFVKFADAHRSIEKFGIRLLKTIKPMLTDLNTYLNKAIPDTRLTIKKYLDVKFEYLSYCLKVKEMAAAAYSCIALGEPLYRVSTGNYEYRLILRCRQEARARFSQMRKDVLEKMELLDQKHVQDIVFQLQRFVSTMSKYYNDCYAVLRDADVFPIEVDLAHTTLAYGPNQGGFTDGEDEEEEEEDGAAREVSKDARGATGPTDKGGSWCDS
notes: PICK1 with residues 271DDEE274 in the BAR domain substituted by alanines; source: E. coli BL21(DE3), pET28, purified (Ni-NTA)
With B2, in series [2], the “stoichiometry N” value was found to be 2.

B3: Amphiphysin2-GFP (natural protein, UniProt O00499 1-593, looked up)
chain: MAEMGSKGVTAGKIASNVQKKLTRAQEKVLQKLGKADETKDEQFEQCVQNFNKQLTEGTRLQKDLRTYLASVKAMHEASKKLNECLQEVYEPDWPGRDEANKIAENNDLLWMDYHQKLVDQALLTMDTYLGQFPDIKSRIAKRGRKLVDYDSARHHYESLQTAKKKDEAKIAKPVSLLEKAAPQWCQGKLQAHLVAQTNLLRNQAEEELIKAQKVFEEMNVDLQEELPSLWNSRVGFYVNTFQSIAGLEENFHKEMSKLNQNLNDVLVGLEKQHGSNTFTVKAQPSDNAPAKGNKSPSPPDGSPAATPEIRVNHEPEPAGGATPGATLPKSPSQLRKGPPVPPPPKHTPSKEVKQEQILSLFEDTFVPEISVTTPSQFEAPGPFSEQASLLDLDFDPLPPVTSPVKAPTPSGQSIPWDLWEPTESPAGSLPSGEPSAAEGTFAVSWPSQTAEPGPAQPAEASEVAGGTQPAAGAQEPGETAASEAASSSLPAVVVETFPATVNGTVEGGSGAGRLDLPPGFMFKVQAQHDYTATDTDELQLKAGDVVLVIPFQNPEEQDEGWLMGVKESDWNQHKELEKCRGVFPENFTERVP
notes: Amphiphysin 2, BAR domain protein; plasmid a gift from Dr. Emmanuel Boucrot; Called Amphiphysin2-GFP in the methods and ^GFPAmphiphysin in the results and the legend; also called ^GFPAmphiphysin; ^GFPamphiphysin; source: HEK293, transfected, cross-linked in cells, in lysate
In the case of B3, in series [1], the “stoichiometry N” value was 2.

B4: his6ΔNT-PICK1 (natural protein, UniProt Q9EP80 1-416, looked up)
chain: MFAKLGIPTVPGKVTLQKDAQNLIGISIGGGAQYCPCLYIVQVFDNTPAALDGTVAAGDEITGVNGRSIKGKTKVEVAKMIQEVKGEVTIHYNKLQADPKQGMSLDIVLKKVKHRLVENMSSGTADALGLSRAILCNDGLVKRLEELERTAELYKGMTEHTKNLLRAFYELSQTHRAFGDVFSVIGVREPQPAASEAFVKFADAHRSIEKFGIRLLKTIKPMLTDLNTYLNKAIPDTRLTIKKYLDVKFEYLSYCLKVKEMDDEEYSCIALGEPLYRVSTGNYEYRLILRCRQEARARFSQMRKDVLEKMELLDQKHVQDIVFQLQRFVSTMSKYYNDCYAVLRDADVFPIEVDLAHTTLAYGPNQGGFTDGEDEEEEEEDGAAREVSKDARGATGPTDKGGSWCDS
notes: source: E. coli BL21(DE3), pET28, purified (Ni-NTA)
With B4, in series [2], the “stoichiometry N” value turned out to be 2.
